T1: human CD39 (full length, on cells) (human, UniProt P49961 1-510)
T1 sequence: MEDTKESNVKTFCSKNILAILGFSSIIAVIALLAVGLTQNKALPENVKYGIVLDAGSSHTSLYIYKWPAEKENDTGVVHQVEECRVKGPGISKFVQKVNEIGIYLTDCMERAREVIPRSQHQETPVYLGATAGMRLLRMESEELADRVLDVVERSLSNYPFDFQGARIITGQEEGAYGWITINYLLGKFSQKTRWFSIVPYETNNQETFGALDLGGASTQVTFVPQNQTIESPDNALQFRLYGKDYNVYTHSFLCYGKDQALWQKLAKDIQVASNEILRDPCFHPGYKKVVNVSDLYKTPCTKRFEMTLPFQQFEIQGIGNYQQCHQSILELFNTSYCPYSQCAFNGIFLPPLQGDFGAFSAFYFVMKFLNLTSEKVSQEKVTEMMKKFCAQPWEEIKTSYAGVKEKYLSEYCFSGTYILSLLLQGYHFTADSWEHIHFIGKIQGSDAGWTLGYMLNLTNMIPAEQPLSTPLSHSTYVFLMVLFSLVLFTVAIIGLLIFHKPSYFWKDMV

T2: mouse CD39 (full length, on CHOK1-mCD39 cells) (mouse, UniProt P55772 1-510)
T2 construct: whole, on cells
T2 sequence (looked up): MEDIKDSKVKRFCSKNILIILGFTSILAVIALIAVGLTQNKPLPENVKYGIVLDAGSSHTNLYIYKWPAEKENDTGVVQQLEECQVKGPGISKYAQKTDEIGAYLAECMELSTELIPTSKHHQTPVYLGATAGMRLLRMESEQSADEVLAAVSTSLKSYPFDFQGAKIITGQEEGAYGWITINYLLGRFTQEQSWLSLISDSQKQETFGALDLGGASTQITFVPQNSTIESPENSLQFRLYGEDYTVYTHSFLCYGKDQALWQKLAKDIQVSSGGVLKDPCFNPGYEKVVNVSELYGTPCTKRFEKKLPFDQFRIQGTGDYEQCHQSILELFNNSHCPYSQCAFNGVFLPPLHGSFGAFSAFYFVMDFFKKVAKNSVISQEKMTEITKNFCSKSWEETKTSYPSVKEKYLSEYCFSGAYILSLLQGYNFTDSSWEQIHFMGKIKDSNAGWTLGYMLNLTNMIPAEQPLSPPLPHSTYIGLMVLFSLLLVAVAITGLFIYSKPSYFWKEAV

T3: cynomolgus CD39 (full length, on CHOK1-cynoCD39 cells) (cynomolgus monkey, UniProt A0A7N9DGH8 1-510)
T3 construct: whole, on cells; also called cCD39
T3 sequence: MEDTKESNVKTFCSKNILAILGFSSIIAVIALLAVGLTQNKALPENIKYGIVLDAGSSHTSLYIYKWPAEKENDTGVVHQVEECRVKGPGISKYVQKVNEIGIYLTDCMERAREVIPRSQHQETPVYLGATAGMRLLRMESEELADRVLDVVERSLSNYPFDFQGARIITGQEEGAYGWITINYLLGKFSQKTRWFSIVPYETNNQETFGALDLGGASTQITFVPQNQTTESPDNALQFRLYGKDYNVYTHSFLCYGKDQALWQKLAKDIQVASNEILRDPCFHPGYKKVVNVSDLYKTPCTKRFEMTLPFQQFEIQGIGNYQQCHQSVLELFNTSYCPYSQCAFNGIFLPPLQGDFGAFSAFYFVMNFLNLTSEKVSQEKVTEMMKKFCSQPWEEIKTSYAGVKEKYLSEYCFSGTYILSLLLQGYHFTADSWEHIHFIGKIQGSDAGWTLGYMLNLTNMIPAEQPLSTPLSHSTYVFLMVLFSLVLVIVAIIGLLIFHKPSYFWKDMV


What was measured:
[1] = molecular target: T1, human CD39 (full length, on cells); experiment: cell-based or functional assay
[2] = molecular target: T1, human CD39 (full length, on cells); experiment: FACS competition on CHOK1-hCD39; competitor mAb19-Alexa488
Procedure: (§1) Anti-CD39 antibodies were labeled using Alex488 labeling kit and were diluted in a series of concentrations, before mixing with CHOK1-hCD39 cells to test binding EC₅₀using FACS. The non-labeled antibodies were tested for their blocking efficacy to the labelled ones. Briefly, mononuclear CHOK1-hCD39 cells were prepared to 2×10⁶/ml and plated into 96 well at 50 μl/well, then mixed with antibodies gradients to final volume at 100 μl, and then equal volume of Alex488 label antibodies were added at two folds EC80 concentration. 96 well plates were incubated at 4° C. for 1 hour, and spun down and washed 3 times with 200 μl FACS buffer. The FACS analysis was performed on FACScelesta machine and data was analyzed by Flowjo software. The blocking percentages were calculated and those having above 80% competition rate were allocated into one epitope group, compared with the non-competing well (Alex488 labeled antibody only).
(§2) Based on the competition results, the 4 anti-CD39 hybridoma antibodies (mAb14, mAb19, mAb21, mAb23) can be grouped into 4 different epitope groups, as shown in Table 11.

[3] = molecular target: T2, mouse CD39 (full length, on CHOK1-mCD39 …); experiment: FACS, CHOK1-mCD39 cells
Description: (§3) FACS were used to determine binding of the antibodies to cell lines expressing CD39 naturally (SK-MEL-28) or recombinantly (CHOK1-hCD39, CHOK1-cynoCD39, and CHOK1-mCD39), or with cells lacking CD39 expression (CHOK1-blank) as a negative control.
(§4) CHOK1-hCD39, CHOK1-cCD39, CHOK1-mCD39 and CHOK1-blank cells were maintained in culture medium according to ATCC procedure. Cells were collected and re-suspended in blocking buffer at a density of 3×10⁶ cells/ml. Cells were transferred to 96 well FACS plates at 100 μl/well (3×10⁵ cells/well), the plates were centrifuged and washed twice with FACS buffer (PBS, 1% FBS, 0.05% Tween-20). 4-folds serial dilution of anti-CD39 antibodies were prepared in FACS buffer starting from 30 μg/ml. Reference antibody 9-8B and mouse/human control IgG were used as positive and negative controls, respectively. Cells were re-suspended in 100 μL/well diluted antibodies, and the plates were incubated at 4° C. for 60 min. […] The plates were washed with FACS buffer, and cells were re-suspended in 100 μL/well of PBS. Cells were then analyzed with FACSVerse™ and mean fluorescence intensity were determined. Full binding curves were generated on the CD39 expressing cells by testing a range of antibody concentrations. Apparent affinity was determined for each antibody using Prism software.

[4] = molecular target: T1, human CD39 (full length, on cells); experiment: FACS, CHOK1-hCD39 cells
Description: as §3, §4

[5] = molecular target: T1, human CD39 (full length, on cells); experiment: FACS competition on CHOK1-hCD39; competitor mAb14-Alexa488
Procedure: as §1, §2

[6] = molecular target: T1, human CD39 (full length, on cells); experiment: FACS competition on CHOK1-hCD39; competitor 9-8B-Alexa488
Procedure: as §1, §2

[7] = molecular target: T3, cynomolgus CD39 (full length, on …); experiment: FACS, CHOK1-cynoCD39 cells
Description: as §3, §4

[8] = molecular target: T1, human CD39 (full length, on cells); experiment: FACS competition on CHOK1-hCD39; competitor mAb23-Alexa488
Procedure: as §1, §2

[9] = molecular target: T1, human CD39 (full length, on cells); experiment: FACS, SK-MEL-28 cells
Procedure: as §3
Similarly, human CD39 expressing cells SK-MEL-5, SK-MEL-28 or MOLP-8, were incubated with a gradient concentration of anti-CD39 antibodies for 30 minutes at 4° C. Cells were washed 3 times using FACS buffer and next incubated with fluorescence labelled secondary antibody (goat-anti-mouse IgG or goat anti-human IgG) for 30 minutes at 4° C. Cells were washed 3 times and then re-suspended in FACS buffer and analyzed by flow cytometry analysis on BD Celesta. Data plotted and analyzed using GraphPad Prism 8.02.

[10] = molecular target: T1, human CD39 (full length, on cells); experiment: FACS competition on CHOK1-hCD39; competitor mAb21-Alexa488
Procedure: as §1, §2

SK-MEL-28 cell based ATPase inhibition % at 10 nM [1] [%] | blocking percentage [2] [%] | EC50 [4] [nM] | blocking percentage [5] [%] | blocking percentage [6] [%] | EC50 [7] [nM] | blocking percentage [8] [%] | EC50 [9] [nM] | blocking percentage [10] [%] | Binder | binding result [3]
70 | 98 | 6.7 | 24 | 20 | 11 | 97 | 90 | 90 | mAb21 (antibody, V domains shown, mouse hybridoma antibody) VH: EVKLEKSGGGLVQPGGSMKLSCVASGFTFSNYWMNWVRQSPEKGLEWVAQIRLNPDNYATHFAESVKGRFTISRDDSKNSVYLQMNSLRAEDTGIYYCTEHGTRGFAYWGQGTLVTVSE VL: not shown | no binding (tested: 30 µg/ml highest concentration)
75 | 98 | 1.7 | 86 | 98 | 2.3 | 100 | 1.6 | 93 | mAb23 (antibody, V domains shown, mouse hybridoma antibody) VH: EVQLQQSGAELLRPGASVKLSCTASGYNLKDTFLHWVKQRPEQGLEWIGRIDPANGNIKYDPKFQGKATLTADTSSNTAYLQLISLTSEDTAVYYCANSPYYYGSGYRIFDVWGAGTTVTVSS VL: QIVLTQSPAIMSASPGEKVTITCSAFSSVNYMHWYQQKPGTSPKLLIYTTSNLASGVPTRFSGSGSGTSYSLTISRMEAEDAATYYCQQRSTYPFTFGSGTKLEIQ | no binding (tested: 30 µg/ml highest concentration)
65 | 96 | 4.5 | 23 | 6 | 5.8 | 91 | 46 | 83 | mAb19 (antibody, V domains shown, mouse hybridoma antibody) VH: EVKLEKSGGGLVQPGGSMKLSCVASGFTFSNYWMNWVRQSPEKGLEWVAQIRLNPDNYATHYAESVKGRFTISRDDYKNSVYLQMSSLRAEDSGIYYCTQHGSRGFAYWGQGTLVTVS VL: not shown | no binding (tested: 30 µg/ml highest concentration)

Reference: patent US20210388105A1 (ELPISCIENCE SUZHOU BIOPHARMA, published 2021)
